Source: IntAct's records for PubMed 21242966

B1: F-box only protein 4 (Homo sapiens), Q9UKT5 (parent)
chain: MAGSEPRSGTNSPPPPFSDWGRLEAAILSGWKTFWQSVSKERVARTTSREEVDEAASTLTRLPIDVQLYILSFLSPHDLCQLGSTNHYWNETVRDPILWRYFLLRDLPSWSSVDWKSLPDLEILKKPISEVTDGAFFDYMAVYRMCCPYTRRASKSSRPMYGAVTSFLHSLIIQNEPRFAMFGPGLEELNTSLVLSLMSSEELCPTAGLPQRQIDGIGSGVNFQLNNQHKFNILILYSTTRKERDRAREEHTSAVNKMFSRHNEGDDQQGSRYSVIPQIQKVCEVVDGFIYVANAEAHKRHEWQDEFSHIMAMTDPAFGSSGRPLLVLSCISQGDVKRMPCFYLAHELHLNLLNHPWLVQDTEAETLTGFLNGIEWILEEVESKRAR
B2: 14-3-3 protein epsilon (Rattus norvegicus (Rat)), P62260 (parent)
chain: MDDREDLVYQAKLAEQAERYDEMVESMKKVAGMDVELTVEERNLLSVAYKNVIGARRASWRIISSIEQKEENKGGEDKLKMIREYRQMVETELKLICCDILDVLDKHLIPAANTGESKVFYYKMKGDYHRYLAEFATGNDRKEAAENSLVAYKAASDIAMTELPPTHPIRLGLALNFSVFYYEILNSPDRACRLAKAAFDDAIAELDTLSEESYKDSTLIMQLLRDNLTLWTSDMQGDGEEQNKEALQDVEDENQ

What was measured:
[1] = variants of: B1; conditions: with 1433e_human YWHAE
[2] = variants of: B1; conditions: with 1433e_mouse Ywhae
[3] = variants of: B1; conditions: with 1433e_human YWHAE; remark: listed apart in the source
1433e_rat Ywhae, P62260 = variants of: B1; conditions: with 1433e_rat Ywhae, P62260
fbx4_human FBXO4, Q9UKT5 = variants of: B2; conditions: with fbx4_human FBXO4, Q9UKT5

Row | Variant | effect of a mutation on the interaction [1] | effect of a mutation on the interaction [2] | effect of a mutation on the interaction [3] | effect of a mutation on the interaction (1433e_rat Ywhae, P62260) | effect of a mutation on the interaction (fbx4_human FBXO4, Q9UKT5)
1 | S8R | decreasing interaction | disrupting interaction | disrupting interaction | decreasing interaction | –
2 | S12A | – | disrupting interaction | disrupting interaction | decreasing interaction | –
3 | K50E | – | – | – | – | disrupting interaction
